Test results taken from US20120114630.

Molecular target: recombinant staphylokinase SAK-SY162

B1: microplasminogen variant Lys137Met (K137M) (protein)
chain: APSFDCGKPQVEPKKCPGRVVGGCVAHPHSWPWQVSLRTRFGMHFCGGTLISPEWVLTAAHCLEKSPRPSSYKVILGAHQEVNLEPHVQEIEVSRLFLEPTRKDIALLKLSSPAVITDKVIPACLPSPNYVVADRTECFITGWGETQGTFGAGLLMEAQLPVIENKVCNRYEFLNGRVQSTELCAGHLAGGTDSCQGDSGGPLVCFEKDKYILQGVTSWGLGCARPNKPGVYVRVSRFVTWIEGVMRNN
  conversion of inactive microplasminogen into active microplasmin, HPLC profile 10 min after addition of staphylokinase: ~85%
